Reference: paper PMC11021369, “Resolving the polycistronic aftermath: Essential role of topoisomerase IA in preventing R-loops in Leishmania” (The Journal of Biological Chemistry, 2024)

Key:
[1] = molecular target: T1, Human TOPIB (Homo sapiens, UniProt P11387); assay: plasmid DNA relaxation assay with commercial human TOPIB, […] drug (Fig. S3C); type: biochemical
T1 construct: gene TOP1
T1 sequence (P11387 2-765): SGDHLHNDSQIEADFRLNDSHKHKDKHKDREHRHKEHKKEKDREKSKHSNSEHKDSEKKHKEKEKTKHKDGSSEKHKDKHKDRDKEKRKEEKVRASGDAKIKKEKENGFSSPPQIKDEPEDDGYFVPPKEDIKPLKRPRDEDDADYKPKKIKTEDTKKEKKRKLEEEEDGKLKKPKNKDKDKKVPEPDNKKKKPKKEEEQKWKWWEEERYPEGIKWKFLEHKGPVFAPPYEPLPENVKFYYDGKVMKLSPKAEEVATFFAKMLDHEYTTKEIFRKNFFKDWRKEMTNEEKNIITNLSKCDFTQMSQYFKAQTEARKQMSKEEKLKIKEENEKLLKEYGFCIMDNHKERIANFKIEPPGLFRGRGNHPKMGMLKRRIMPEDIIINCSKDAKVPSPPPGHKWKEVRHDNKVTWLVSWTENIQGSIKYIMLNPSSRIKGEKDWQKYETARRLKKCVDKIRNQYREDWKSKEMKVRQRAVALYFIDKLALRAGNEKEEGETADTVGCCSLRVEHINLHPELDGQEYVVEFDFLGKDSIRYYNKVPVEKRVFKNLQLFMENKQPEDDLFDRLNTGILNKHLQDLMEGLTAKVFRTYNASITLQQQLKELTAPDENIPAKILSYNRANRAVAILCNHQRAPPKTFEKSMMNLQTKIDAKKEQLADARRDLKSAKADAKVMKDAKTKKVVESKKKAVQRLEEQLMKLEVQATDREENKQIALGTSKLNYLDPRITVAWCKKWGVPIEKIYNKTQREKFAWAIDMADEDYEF

[2] = molecular target: T2, LdTOPIA (Leishmania donovani DNA topoisomerase IA) (Leishmania donovani, UniProt A0A3S7WW83); assay: plasmid DNA relaxation assay with purified LdTOPIA ([…] drug), agarose gel; type: biochemical
T2 construct: gene LdCL_210006600; full length, 7xHis-LdTOPIA-6xHis (809 aa), expressed in L. tarentolae LtT7TR
T2 sequence (A0A3S7WW83 1-809): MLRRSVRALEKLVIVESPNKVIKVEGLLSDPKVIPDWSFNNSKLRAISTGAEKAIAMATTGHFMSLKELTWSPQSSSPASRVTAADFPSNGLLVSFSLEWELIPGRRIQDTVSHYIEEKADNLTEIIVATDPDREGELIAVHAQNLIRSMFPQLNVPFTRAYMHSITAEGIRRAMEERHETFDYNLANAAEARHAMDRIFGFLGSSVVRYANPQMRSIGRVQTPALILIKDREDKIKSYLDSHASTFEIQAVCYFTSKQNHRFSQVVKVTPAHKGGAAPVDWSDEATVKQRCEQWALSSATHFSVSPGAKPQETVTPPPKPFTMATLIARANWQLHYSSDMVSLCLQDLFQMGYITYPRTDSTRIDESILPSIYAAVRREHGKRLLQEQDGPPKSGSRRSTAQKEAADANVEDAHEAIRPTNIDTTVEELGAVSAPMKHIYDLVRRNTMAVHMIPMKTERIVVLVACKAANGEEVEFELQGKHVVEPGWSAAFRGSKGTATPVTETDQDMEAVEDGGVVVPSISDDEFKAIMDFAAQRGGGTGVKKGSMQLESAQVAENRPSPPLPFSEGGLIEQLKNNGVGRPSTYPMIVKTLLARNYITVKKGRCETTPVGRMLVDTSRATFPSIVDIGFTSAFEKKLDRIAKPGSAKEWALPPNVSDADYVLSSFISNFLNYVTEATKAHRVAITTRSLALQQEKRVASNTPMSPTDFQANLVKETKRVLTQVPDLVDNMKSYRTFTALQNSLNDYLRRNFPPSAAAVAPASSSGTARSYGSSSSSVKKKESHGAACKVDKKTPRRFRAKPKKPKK

[3] = molecular target: T3, LdTOPIA (DNA topoisomerase IA) (Leishmania donovani DD8, UniProt A0A3S7WW83 1-809); assay: fluorescence anisotropy; 30 nM DNA, 0.5 mM EDTA; 50 mM Tris pH 7.5, 100 mM NaCl, 0.5 mM DTT, 0.5 mM EDTA, 5% glycerol, 15 min, 25 °C (EMSA gel at 4 °C); settings: protein: recombinant, tags: N-term 7xHis, C-term 6xHis
T3 sequence: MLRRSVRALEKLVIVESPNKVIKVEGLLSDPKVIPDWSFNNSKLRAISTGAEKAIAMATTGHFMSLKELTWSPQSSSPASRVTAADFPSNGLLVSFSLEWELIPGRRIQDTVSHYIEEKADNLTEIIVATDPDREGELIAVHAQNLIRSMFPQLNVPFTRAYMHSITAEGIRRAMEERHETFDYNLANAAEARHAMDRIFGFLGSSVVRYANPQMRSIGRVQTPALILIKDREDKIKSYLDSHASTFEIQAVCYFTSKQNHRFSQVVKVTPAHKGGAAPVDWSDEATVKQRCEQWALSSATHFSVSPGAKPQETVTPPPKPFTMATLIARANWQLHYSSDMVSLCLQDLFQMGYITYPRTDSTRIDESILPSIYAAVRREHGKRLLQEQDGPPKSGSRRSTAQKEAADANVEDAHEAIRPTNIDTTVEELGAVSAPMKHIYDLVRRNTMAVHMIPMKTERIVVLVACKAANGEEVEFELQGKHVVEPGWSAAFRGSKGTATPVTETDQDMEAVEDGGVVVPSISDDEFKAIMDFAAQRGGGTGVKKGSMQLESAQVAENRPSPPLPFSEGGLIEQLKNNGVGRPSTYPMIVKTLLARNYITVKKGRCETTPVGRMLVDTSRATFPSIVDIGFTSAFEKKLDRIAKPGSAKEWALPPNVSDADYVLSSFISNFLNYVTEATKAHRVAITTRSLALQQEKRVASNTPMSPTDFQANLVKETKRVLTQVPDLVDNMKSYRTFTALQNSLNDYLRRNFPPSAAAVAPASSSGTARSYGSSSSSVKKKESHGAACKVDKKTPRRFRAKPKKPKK

[4] = molecular target: T4, RNase H I, catalytically inactive D210N (Homo sapiens, UniProt O60930 1-286, D210N); assay: fluorescence anisotropy; 30 nM duplex, 2-200 nM protein; 50 mM Tris pH 7.5, 100 mM NaCl, 0.5 mM DTT, 0.5 mM EDTA, 5% glycerol, 15 min, 25 °C (EMSA gel at 4 °C); settings: protein: recombinant; tags: His (pET15b; Ni-NTA purified); label: 5' FAM on RNA strand; blunt
T4 sequence: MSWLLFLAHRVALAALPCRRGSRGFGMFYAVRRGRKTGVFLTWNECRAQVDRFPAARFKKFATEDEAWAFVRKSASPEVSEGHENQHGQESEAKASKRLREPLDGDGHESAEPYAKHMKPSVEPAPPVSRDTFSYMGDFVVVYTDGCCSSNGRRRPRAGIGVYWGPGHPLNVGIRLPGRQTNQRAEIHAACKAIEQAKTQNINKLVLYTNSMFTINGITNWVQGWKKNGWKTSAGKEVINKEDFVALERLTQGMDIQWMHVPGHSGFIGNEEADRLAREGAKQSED

[5] = molecular target: T3, LdTOPIA (DNA topoisomerase IA); assay: fluorescence anisotropy; 50 mM Tris pH 7.5, 100 mM NaCl, 0.5 mM DTT, 0.5 mM EDTA, 5% glycerol, 15 min, 25 °C (EMSA gel at 4 °C); settings: protein: recombinant; tags: N-term 7xHis, C-term 6xHis; label: 5' FAM on RNA strand; blunt

CC[C@@]1(O)C(=O)OCc2c1cc1n(c2=O)Cc2cc3ccccc3nc2-1 [CPT, Camptothecin]
plasmid DNA relaxation assay with commercial human TOPIB, 10 μM drug (Fig. S3C) [1]: Etoposide and CPT could effectively inhibit plasmid relaxation of the TOPIB and TOPII respectively (Fig. S3C)

CN(C)CCCN1c2ccccc2CCc2ccccc21 [imipramine]
plasmid DNA relaxation assay with purified LdTOPIA (10, 20 and 40 μM drug), agar [2]: Both imipramine and norclomipramine (NCL) could inhibit the DNA relaxation by LdTOPIA

TATTGGGCGCTCTTCCGCTTCCTCGCTCACTG (ssDNA) [32-nt ssDNA, FAM]
Kd ([3]; label: 5' FAM): 3.16 ± 0.12 nM

B1: 32-bp dsDNA, FAM (dsDNA)
DNA 1: TATTGGGCGCTCTTCCGCTTCCTCGCTCACTG
DNA 2: CAGTGAGCGAGGAAGCGGAAGAGCGCCCAATA
Kd ([3]; label: 5' FAM on strand 1, blunt): 8.1 ± 0.23 nM

B2: DNA:RNA duplex, FAM-RNA (DNA:RNA)
RNA: UAUUGGGCGCUCUUCCGCUUCCUCGCUCACUG
DNA: CAGTGAGCGAGGAAGCGGAAGAGCGCCCAATA
binding result [4]: binds | binding result [5]: no binding
